Assay results reported in US20240132578A1.

What was measured:
Experiment in all cases: cell-based or functional assay
[1] = molecular target: HIV-1 92TH021 Env (pseudovirus) (HIV-1)
[2] = molecular target: HIV-1 Env of isolate MGRM-A-001 (clade A pseudovirus) (HIV-1)
[3] = molecular target: HIV-1 Env of isolate MGRM-D-018 (clade D pseudovirus) (HIV-1)
[4] = molecular target: HIV-1 Env of isolate SC422661.8 (Acute), clade B (HIV-1)
[5] = molecular target: HIV-1 Env of isolate THR0.18 (Acute), clade B (HIV-1)
[6] = molecular target: HIV-1 Env of isolate VLGCB3, clade B (HIV-1)
[7] = molecular target: HIV-1 Env of pseudovirus MGRM-F1-004 (clade F) (HIV-1)
[8] = molecular target: HIV-1 Env of pseudovirus MGRM-G-015 (HIV-1)
[9] = molecular target: HIV-1 IAVI-C18 envelope (Env) on pseudovirus (HIV-1)
[10] = molecular target: HIV-1 IAVI-C22 envelope (Env) on pseudovirus (HIV-1)
[11] = molecular target: HIV-1 MGRM-AE-002 Env (pseudovirus) (HIV-1)
[12] = molecular target: HIV-1 envelope glycoprotein (Env) of isolate LAVIC_18 (HIV-1)
[13] = molecular target: HIV-1 envelope glycoprotein (Env) of isolate MGRM-C-002 (HIV-1)
[14] = molecular target: HIV-1 envelope glycoprotein (Env) of isolate MGRM-C-007 (HIV-1)
[15] = molecular target: HIV-1 envelope glycoprotein (Env) of isolate MGRM-C-008 (HIV-1)
[16] = molecular target: HIV-1 envelope glycoprotein (Env) of isolate MGRM-C-019 (HIV-1)
[17] = molecular target: HIV-1 Env of pseudovirus MGRM-D-020 (HIV-1)
[18] = molecular target: HIV-1 Env of pseudovirus MGRM-F1-014 (HIV-1)
[19] = molecular target: HIV-1 Env of pseudovirus MGRM-F1-021 (HIV-1)
[20] = molecular target: HIV-1 Env of isolate CMU02 (pseudovirus) (HIV-1)
[21] = molecular target: HIV-1 Env of isolate MG RM-A-006 (pseudovirus) (HIV-1)
[22] = molecular target: HIV-1 Env of isolate MGRM-D-001 (HIV-1)
[23] = molecular target: HIV-1 Env of isolate MGRM-G-011 (subtype G) (HIV-1)
[24] = molecular target: HIV-1 Env of pseudovirus isolate MGRM-Chronic-B-001 (clade B) (HIV-1)

Chain of PGT-142 (4995_E20) (antibody) (VH): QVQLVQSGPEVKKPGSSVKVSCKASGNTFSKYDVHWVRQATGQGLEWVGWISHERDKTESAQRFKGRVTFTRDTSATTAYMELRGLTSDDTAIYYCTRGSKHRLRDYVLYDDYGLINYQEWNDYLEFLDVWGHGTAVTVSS
Chain of PGT-142 (4995_E20) (antibody) (VL): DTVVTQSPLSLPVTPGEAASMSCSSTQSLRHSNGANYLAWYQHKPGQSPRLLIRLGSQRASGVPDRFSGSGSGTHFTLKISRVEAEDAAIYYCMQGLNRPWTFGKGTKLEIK
Chain of PGT-145 (4995_P16) (antibody) (VH): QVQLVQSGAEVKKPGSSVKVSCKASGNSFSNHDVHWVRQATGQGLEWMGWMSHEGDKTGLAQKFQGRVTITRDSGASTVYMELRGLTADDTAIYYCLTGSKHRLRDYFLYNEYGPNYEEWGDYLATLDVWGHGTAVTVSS
Chain of PGT-145 (4995_P16) (antibody) (VL): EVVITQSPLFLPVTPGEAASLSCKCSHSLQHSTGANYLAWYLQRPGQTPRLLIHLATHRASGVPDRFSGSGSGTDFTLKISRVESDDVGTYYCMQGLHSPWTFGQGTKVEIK
Chain of 1443_C16 (PG16) (TCN-116) (antibody) (VH): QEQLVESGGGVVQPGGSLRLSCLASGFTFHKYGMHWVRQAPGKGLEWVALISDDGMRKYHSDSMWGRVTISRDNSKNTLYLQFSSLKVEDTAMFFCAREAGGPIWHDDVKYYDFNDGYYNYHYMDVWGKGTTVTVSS
Chain of 1443_C16 (PG16) (TCN-116) (antibody) (VL): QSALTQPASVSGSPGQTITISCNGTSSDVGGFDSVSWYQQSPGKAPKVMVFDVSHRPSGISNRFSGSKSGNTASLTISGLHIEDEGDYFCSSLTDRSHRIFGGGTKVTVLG
Chain of PGT-143 (4980_N08) (antibody) (VH): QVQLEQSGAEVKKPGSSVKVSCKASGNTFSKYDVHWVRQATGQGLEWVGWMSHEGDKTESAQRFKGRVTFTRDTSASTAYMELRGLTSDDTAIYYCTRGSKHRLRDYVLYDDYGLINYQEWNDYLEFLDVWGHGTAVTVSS
Chain of PGT-143 (4980_N08) (antibody) (VL): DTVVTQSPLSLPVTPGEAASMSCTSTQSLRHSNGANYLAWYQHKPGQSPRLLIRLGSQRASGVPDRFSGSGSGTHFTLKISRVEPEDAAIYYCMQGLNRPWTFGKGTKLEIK
Chain of PGT-144 (4970_K22) (antibody) (VH): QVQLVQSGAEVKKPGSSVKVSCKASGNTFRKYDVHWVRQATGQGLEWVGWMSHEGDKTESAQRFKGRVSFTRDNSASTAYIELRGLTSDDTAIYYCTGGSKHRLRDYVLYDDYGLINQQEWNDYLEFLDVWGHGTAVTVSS
Chain of PGT-144 (4970_K22) (antibody) (VL): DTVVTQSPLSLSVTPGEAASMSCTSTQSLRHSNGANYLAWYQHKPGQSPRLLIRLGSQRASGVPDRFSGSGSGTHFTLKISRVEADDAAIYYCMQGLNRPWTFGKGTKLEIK
Chain of PGT-141 (4964_G22; 4993_K13) (antibody) (VH): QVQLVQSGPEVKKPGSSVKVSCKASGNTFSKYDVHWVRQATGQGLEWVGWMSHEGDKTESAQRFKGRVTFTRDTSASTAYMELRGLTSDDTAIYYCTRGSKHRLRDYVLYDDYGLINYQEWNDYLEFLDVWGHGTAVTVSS

Row | Substance | IC50 (µg/ml), pseudovirus neutralization [2] [µg/mL] | IC50, pseudovirus neutralization [3] [µg/mL] | IC50 (µg/ml), pseudovirus neutralization [4] [µg/mL] | IC50 (µg/ml), pseudovirus neutralization [5] [µg/mL] | IC50 (µg/ml), pseudovirus neutralization [6] [µg/mL] | IC50 [7] [µg/mL] | IC50 (µg/ml), pseudovirus neutralization [8] [µg/mL] | neutralization IC50 [9] [µg/mL] | neutralization IC50 [10] [µg/mL] | IC50 (µg/ml), pseudovirus neutralization [11] [µg/mL] | IC50 (µg/ml), pseudovirus neutralization [12] [µg/mL] | IC50 (µg/ml), pseudovirus neutralization [13] [µg/mL] | IC50 (µg/ml), pseudovirus neutralization [14] [µg/mL] | IC50 (µg/ml), pseudovirus neutralization [15] [µg/mL] | IC50 (µg/ml), pseudovirus neutralization [16] [µg/mL] | IC50, pseudovirus neutralization [17] [µg/mL] | IC50, pseudovirus neutralization [18] [µg/mL] | IC50, pseudovirus neutralization [19] [µg/mL] | also measured
1 | 4E10 (antibody) | 15.1 | 3.9 | 6.35 | 4.68 | 5.76 | 2.74 | 1.07 | > 50 | 1.02 | 0.55 | > 50 | 18.2 | 5.84 | 2.97 | 3.49 |  |  |  | IC50 (µg/ml), pseudovirus neutralization [1]: 1.17 µg/mL
2 | PGT-143 (4980_N08) (antibody) |  |  |  |  |  |  |  |  |  |  |  |  |  |  |  | > 50 | 0.001 | > 50 | 
3 | PGT-142 (4995_E20) (antibody) |  |  |  |  |  |  |  |  |  |  |  |  |  |  |  | > 50 | 0.001 | > 50 | 
4 | b12 (antibody) | > 50 | 1.39 | 6.11 | 3.62 | 0.15 | > 50 | > 50 | > 50 | 3.6 | 17.1 | > 50 | > 50 | > 50 | 1.51 | > 50 |  |  |  | 
5 | 1495_C14 (PGC14) (antibody) | > 50 | > 50 | > 50 | > 50 | 21 | > 50 | > 50 | > 50 | 9.5 | > 50 | > 50 | > 50 | > 50 | > 50 | 12 |  |  |  | IC50 (µg/ml), pseudovirus neutralization [1]: > 50 µg/mL
6 | PGT-144 (4970_K22) (antibody) |  |  |  |  |  |  |  |  |  |  |  |  |  |  |  | > 50 | 0.014 | > 50 | 
7 | PGT-141 (4964_G22; 4993_K13) (antibody) |  |  |  |  |  |  |  |  |  |  |  |  |  |  |  | > 50 | 0.001 | > 50 | 
8 | 2G12 (antibody) | > 50 | 0.12 | 0.84 | > 50 | 7.9 | > 50 | > 50 | > 50 | > 50 | > 50 | > 50 | > 50 | > 50 | > 50 | > 50 |  |  |  | IC50 (µg/ml), pseudovirus neutralization [1]: > 50 µg/mL
9 | 2F5 (antibody) | > 50 | 4.05 | > 50 | > 50 | > 50 | 4.31 | 0.43 | > 50 | > 50 | 0.31 | > 50 | 44.7 | > 50 | > 50 | > 50 |  |  |  | 
10 | VRC01 (antibody) |  |  |  |  |  |  |  |  |  |  |  |  |  |  |  | 0.192 | 0.056 | 0.039 | IC50 (µg/mL), single-round pseudovirus neutralization [20]: 0.515 µg/mL; IC50 (µg/mL), single-round pseudovirus neutralization [21]: 0.521 µg/mL; IC50 (µg/mL), pseudovirus neutralization [22]: > 50 µg/mL; IC50 (µg/mL), pseudovirus neutralization [23]: 0.065 µg/mL; IC50, pseudovirus neutralization [24]: 0.066 µg/mL
11 | 4980_N08 (PGT-143) (antibody) |  |  |  |  |  |  |  |  |  |  |  |  |  |  |  |  |  |  | IC50 (µg/mL), single-round pseudovirus neutralization [20]: > 50 µg/mL; IC50 (µg/mL), single-round pseudovirus neutralization [21]: > 50 µg/mL; IC50 (µg/mL), pseudovirus neutralization [22]: > 50 µg/mL; IC50 (µg/mL), pseudovirus neutralization [23]: 0.074 µg/mL; IC50, pseudovirus neutralization [24]: > 50 µg/mL
12 | 1443_C16 (PG16) (TCN-116) (antibody) | > 50 | 0.004 | 1.13 | 1.34 | 0.4 | 0.43 | 5.33 | 0.0067 | 0.0687 | 0.01 | 0.02 | 28.3 | 0.05 | > 50 | 0.002 |  |  |  | IC50 (µg/ml), pseudovirus neutralization [1]: 0.1 µg/mL
13 | 4993_K13 (PGT-141) (antibody) |  |  |  |  |  |  |  |  |  |  |  |  |  |  |  |  |  |  | IC50 (µg/mL), single-round pseudovirus neutralization [20]: > 50 µg/mL; IC50 (µg/mL), single-round pseudovirus neutralization [21]: > 50 µg/mL; IC50 (µg/mL), pseudovirus neutralization [22]: > 50 µg/mL; IC50 (µg/mL), pseudovirus neutralization [23]: 0.086 µg/mL; IC50, pseudovirus neutralization [24]: > 50 µg/mL
14 | PGT-145 (4995_P16) (antibody) |  |  |  |  |  |  |  |  |  |  |  |  |  |  |  | 10 | 0.009 | 8.04 | 
